Assay results published in paper PMC11252911 (Proceedings of the National Academy of Sciences of the …, 2024).

Experiments:
Test in all cases: ITC
[1] = molecular target: Pwl2 without the signal peptide (residues 22 to 145) (Magnaporthe oryzae)
[2] = molecular target: Pwl4 (Magnaporthe oryzae)
[3] = molecular target: T1, HMA domain of OsHIPP43 (residues 26 to 101) (rice, UniProt Q8LJL3 26-101); settings: both partners purified
T1 construct: also called Os01g0507700
T1 sequence (looked up): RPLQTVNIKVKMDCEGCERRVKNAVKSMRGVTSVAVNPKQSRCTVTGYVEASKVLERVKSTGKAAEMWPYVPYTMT

Row | Molecule | Kd [1] [nM] | dH [1] [kcal/mol] | Kd [2] [nM] | Kd [3] [nM]
1 | HMA domain of OsHIPP43 (residues 26 to 101) (from UniProt Q8LJL3 26-101) (domain or fragment) | 191 | -67.6 | 124 | 
2 | Pwl1 (natural protein) RKWTNKVIYNDKGEREGSISIRKGAEGDFNCGPGYPGGPDRMVRVHEDNGNIRGMPPGYRLGPDDKEDKRDNQYYSRNGYHVGDGPAEYQNHGGGQWGDGYYGPPGEITNQHGKRQGDQGCHIM |  |  |  | 147
